In general, EC50 refers to the concentration needed to bring the measured effect to its halfway point. The term koff denotes the first-order rate constant of dissociation. Broadly, the kon is the rate constant with which the complex forms.

B1: multimeric protein SEQ ID NO: 43 (designed binder)
chain: GVRLWATRQAMLGQVHEVPEGWLIFVAEQEELYVRVQNGFRKVQLEARTPLGGGGSGGGGSGGGGSQDSTSDLIPAPPLSKVPLQQNFQDNQFHGKWYVVGQAGNIRLREDKDPIKMMATIYELKEDKSYDVTMVKFDDKKCMYDIWTFVPGSQPGEFTLGKIKSFPGHTSSLVRVVSTNYNQHAMVFFKFVFQNREEFYITLYGRTKELTSELKENFIRFSKSLGLPENHIVFPVPIDQCIDGGGSGGAPEQKLISEEDLGSHHHHHHHHHH
B2: multimeric protein SEQ ID NO: 41 (designed binder)
chain: QDSTSDLIPAPPLSKVPLQQNFQDNQFHGKWYVVGQAGNIRLREDKDPIKMMATIYELKEDKSYDVTMVKFDDKKCMYDIWTFVPGSQPGEFTLGKIKSFPGHTSSLVRVVSTNYNQHAMVFFKFVFQNREEFYITLYGRTKELTSELKENFIRFSKSLGLPENHIVFPVPIDQCIDGGSPTPTPTTPTPTPTGVRLWATRQAMLGQVHEVPEGWLIFVAEQEELYVRVQNGFRKVQLEARTPLGGSGGAPEQKLISEEDLGSHHHHHHHHHH
B3: multimeric protein SEQ ID NO: 47 (designed binder)
chain: QDSTSDLIPAPPLSKVPLQQNFQDNQFHGKWYVVGQAGNIRLREDKDPIKMMATIYELKEDKSYDVTMVKFDDKKCMYDIWTFVPGSQPGEFTLGKIKSFPGHTSSLVRVVSTNYNQHAMVFFKFVFQNREEFYITLYGRTKELTSELKENFIRFSKSLGLPENHIVFPVPIDQCIDGGGGGSGGGGSGGGGSKPLDGEYFTLQIRGRERFEMFRELNEALELKDAQAGKEPGGSGGAPEQKLISEEDLGSHHHHHHHHHH
B4: multimeric protein SEQ ID NO: 39 (designed binder)
chain: QDSTSDLIPAPPLSKVPLQQNFQDNQFHGKWYVVGQAGNIRLREDKDPIKMMATIYELKEDKSYDVTMVKFDDKKCMYDIWTFVPGSQPGEFTLGKIKSFPGHTSSLVRVVSTNYNQHAMVFFKFVFQNREEFYITLYGRTKELTSELKENFIRFSKSLGLPENHIVFPVPIDQCIDGGGGGSGVRLWATRQAMLGQVHEVPEGWLIFVAEQEELYVRVQNGFRKVQLEARTPLGGSGGAPEQKLISEEDLGSHHHHHHHHHH
B5: multimeric protein SEQ ID NO: 42 (designed binder)
chain: QDSTSDLIPAPPLSKVPLQQNFQDNQFHGKWYVVGQAGNIRLREDKDPIKMMATIYELKEDKSYDVTMVKFDDKKCMYDIWTFVPGSQPGEFTLGKIKSFPGHTSSLVRVVSTNYNQHAMVFFKFVFQNREEFYITLYGRTKELTSELKENFIRFSKSLGLPENHIVFPVPIDQCIDGAEAAAKEAAAKEAAAKAGVRLWATRQAMLGQVHEVPEGWLIFVAEQEELYVRVQNGFRKVQLEARTPLGGSGGAPEQKLISEEDLGSHHHHHHHHHH
B6: multimeric protein SEQ ID NO: 44 (designed binder)
chain: GVRLWATRQAMLGQVHEVPEGWLIFVAEQEELYVRVQNGFRKVQLEARTPLGGGGSQDSTSDLIPAPPLSKVPLQQNFQDNQFHGKWYVVGQAGNIRLREDKDPIKMMATIYELKEDKSYDVTMVKFDDKKCMYDIWTFVPGSQPGEFTLGKIKSFPGHTSSLVRVVSTNYNQHAMVFFKFVFQNREEFYITLYGRTKELTSELKENFIRFSKSLGLPENHIVFPVPIDQCIDGGGSGGAPEQKLISEEDLGSHHHHHHHHHH
B7: multimeric protein SEQ ID NO: 48 (designed binder)
chain: QDSTSDLIPAPPLSKVPLQQNFQDNQFHGKWYVVGQAGNIRLREDKDPIKMMATIYELKEDKSYDVTMVKFDDKKCMYDIWTFVPGSQPGEFTLGKIKSFPGHTSSLVRVVSTNYNQHAMVFFKFVFQNREEFYITLYGRTKELTSELKENFIRFSKSLGLPENHIVFPVPIDQCIDGGGGGSGGGGSGGGGSGVRLWATRQAMLGQVHEVPEGWLIFVAEQEELYVRVQNGFRKVQLEARTPLGGGGSGGGGSGGGGSQDSTSDLIPAPPLSKVPLQQNFQDNQFHGKWYVVGQAGNIRLREDKDPIKMMATIYELKEDKSYDVTMVKFDDKKCMYDIWTFVPGSQPGEFTLGKIKSFPGHTSSLVRVVSTNYNQHAMVFFKFVFQNREEFYITLYGRTKELTSELKENFIRFSKSLGLPENHIVFPVPIDQCIDGGGSGGAPEQKLISEEDLGSHHHHHHHHHH
B8: multimeric protein SEQ ID NO: 38 (designed binder)
chain: QDSTSDLIPAPPLSKVPLQQNFQDNQFHGKWYVVGQAGNIRLREDKDPIKMMATIYELKEDKSYDVTMVKFDDKKCMYDIWTFVPGSQPGEFTLGKIKSFPGHTSSLVRVVSTNYNQHAMVFFKFVFQNREEFYITLYGRTKELTSELKENFIRFSKSLGLPENHIVFPVPIDQCIDGGGGGSGGGGSGGGGSGVRLWATRQAMLGQVHEVPEGWLIFVAEQEELYVRVQNGFRKVQLEARTPLGGSGGAPEQKLISEEDLGSHHHHHHHHHH
notes: Trivalent; Self-assembled from its monomer polypeptides

For one assay, the target named is T1, recombinant hu4-1BB-His (human 4-1BB with a C-terminal polyhistidine tag, R&D Systems) (human, UniProt Q07011 24-186).
T1 construct: Bought; not shown: C-terminal polyhistidine tag
The experiment in a line: ELISA, hu4-1BB-His coated, detection anti-NGAL-HRP. On the procedure: Recombinant hu4-1BB-His (human 4-1BB with a C-terminal polyhistidine tag, R&D Systems) at the concentration of 1 μg/mL in PBS was coated overnight on microtiter plates at 4° C. After washing with PBS-0.05% T (PBS supplemented with 0.05% (v/v) Tween 20), the plates were blocked with 2% BSA (w/v) in PBS-0.1% T (PBS supplemented with 0.1% (v/v) Tween 20) for 1 h at room temperature. After washing with 100 μL PBS-0.05% T five times, exemplary multimeric proteins (SEQ ID NOs: 38-44 and 46-53) or 4-1BB-specific lipocalin mutein as included in the multimeric protein (SEQ ID NO: 64) at different concentrations, ranging from 100 to 0.002 nM, were added to the wells and incubated for 1 h at room temperature, followed by another wash step. Bound molecules under study were detected by incubation with 1:1000 diluted anti-NGAL-HRP in PBS-0.1% T-2% BSA. After an additional wash step, fluorogenic HRP substrate (QuantaBlu, Thermo) was added to each well and the fluorescence intensity was detected using a fluorescence microplate reader.
The results of exemplary experiments are depicted in FIG. 2, together with the fit curves resulting from a 1:1 binding sigmoidal fit, where the EC₅₀ value and the maximum signal were free parameters, and the slope was fixed to one. The observed EC₅₀ values toward the hu4-1BB of all tested multimeric proteins were in the sub nanomolar range.
A general note: In an ELISA, binding on a coated surface is turned into a signal by an enzyme label.
Consider B1, for which the EC50 is 0.16 nM.
The same measure, in the same setting: in the case of B2 it was 0.19 nM; in that of B3, 0.1 nM.
On the same count and under the same terms, in the case of B4 it was 0.24 nM; in that of B5, 0.26 nM.
On to B6, for which the EC50 stood at 0.22 nM.
On the same count and under the same terms, in the case of B7 it was 0.1 nM; in that of B8, 0.16 nM.

The target of another assay is T2, human 4-1BB on cells (human, UniProt Q07011 24-255). Briefly: cell-based or functional assay.
T2 sequence (Q07011 24-255): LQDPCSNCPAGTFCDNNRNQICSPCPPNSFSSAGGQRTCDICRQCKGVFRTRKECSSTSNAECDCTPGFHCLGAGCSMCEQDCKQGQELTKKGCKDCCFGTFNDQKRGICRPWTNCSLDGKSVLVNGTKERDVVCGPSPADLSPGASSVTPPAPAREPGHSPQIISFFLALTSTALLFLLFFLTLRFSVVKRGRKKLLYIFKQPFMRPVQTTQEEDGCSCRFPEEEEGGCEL
B7: the “EC50 [nM], 4-1BB bioassay (NFκB-luc2/4-1BB Jurkat luminescence), with HepG2 cells” value came out at 0.82 nM.

The next assay concerns the target T3, hu4-1BB-Fc (R&D Systems) (human, UniProt Q07011 24-186).
T3 construct: Bought; also called human 4-1BB; not shown: human IgG Fc of the bought fusion
Briefly: SPR (Biacore 8K), hu4-1BB-Fc captured by anti-human IgG Fc; apparent value, 1:1 fit. On the procedure:
The anti-human IgG Fc antibody (GE Healthcare) was immobilized on a CM5 sensor chip using standard amine chemistry: the carboxyl groups on the chip were activated using 1-ethyl-3-(3-dimethylaminopropyl)-carbodiimide (EDC) and N-hydroxysuccinimide (NHS). Subsequently, anti-human IgG Fc antibody solution (GE Healthcare) at a concentration of 25 μg/mL in 10 mM sodium acetate (pH 5.0) was applied at a flow rate of 5 μL/min until an immobilization level of 4000-10000 resonance units (RU) was achieved. Residual non-reacted NHS-esters were blocked by passing a solution of 1 M ethanolamine across the surface. The reference channel was treated in an analogous manner. Subsequently, hu4-1BB-Fc (R&D Systems) at 0.3 μg/mL was captured by the anti-human IgG-Fc antibody at the chip surface for 180 s at a flow rate of 10 μL/min.
The binding assay was carried out with a contact time of 180 s, a dissociation time of 1200 s or 3000 s and a flow rate of 30 μL/min. All measurements were performed at 25° C. Lipocalin mutein SEQ ID NO: 64 as included in the multimeric proteins was also tested as […]. […] Prior to the protein measurements, three startup cycles were performed for conditioning purposes. Data were evaluated with Biacore Evaluation software. Double referencing was used and the 1:1 binding model was used to fit the raw data.
(SPR reads the build-up and loss of mass on a sensor chip optically.)
Take B1: the Kd amounted to 0.39 nM, the koff amounted to 4.42e-05 s⁻¹ and the kon is 114000 M⁻¹ s⁻¹.
B2: the Kd came to 0.31 nM, the dissociation rate constant (koff) is 2.07e-05 s⁻¹ and the kon is 66200 M⁻¹ s⁻¹.
On to B3, for which the Kd came to 0.66 nM, the koff came out at 6.52e-05 s⁻¹ and the kon was 98700 M⁻¹ s⁻¹.
On the same counts, the results for B4 are 0.38 nM, 2.63e-05 s⁻¹ and 68800 M⁻¹ s⁻¹.
On the same counts, the results for B5 are 0.28 nM, 1.74e-05 s⁻¹ and 61300 M⁻¹ s⁻¹.
B6: the Kd stood at 0.24 nM, the koff was found to be 2.07e-05 s⁻¹ and the kon is 87500 M⁻¹ s⁻¹.
As for B7, the Kd was determined as 0.34 nM, the dissociation rate constant (koff) was 2.76e-05 s⁻¹ and the kon was determined as 81600 M⁻¹ s⁻¹.
On the same counts, the results for B8 are 0.25 nM, 2.22e-05 s⁻¹ and 89200 M⁻¹ s⁻¹.

In another assay the target is T2, human 4-1BB on cells. The experiment in a line: flow cytometry, Flp-In-CHO::hu4-1BB cells. Here is the method: (§1) CHO cells were stably transfected with human 4-1BB, cynomolgus 4-1BB, or a mock control using the Flp-In system (Life Technologies) according to the manufacturer's instructions. Transfected CHO cells were maintained in Ham's F12 medium (Life Technologies) supplemented with 10% Fetal Calf Serum (Biochrom) and 500 μg/ml Hygromycin B (Roth). Cells were cultured in cell culture flasks according to manufacturer's instruction (37° C., 5% CO₂ atmosphere).
(§2) 5×10⁴ cells per well were incubated for 1 h in ice-cold PBS containing 5% fetal calf serum (PBS-FCS). A dilution series of the tested multimeric proteins (SEQ ID NOs: 38-44 and 46-55), the 4-1BB-targeting lipocalin mutein as included in the multimeric proteins (SEQ ID NO: 64) or the GPC3-targeting lipocalin SEQ ID NO: 90 were added to the cells and incubated for 1 h on ice. Cells were washed twice with PBS and then incubated with a rabbit anti-NGAL or a goat anti-human IgG labeled with fluorescent dye Alexa 488 for 30 min on ice. Human IgG4 isotype (SEQ ID NOs: 29 and 30) and lipocalin mutein SEQ ID NO: 8 were tested as a negative control. Cells were subsequently washed and analyzed using iQue Flow cytometer (Intellicyte Screener). Mean geometric fluorescent signals were plotted and fitted with Graphpad software using nonlinear regression (shared bottom, four parameters, variable slope).
For orientation: In flow cytometry, cells or beads pass a laser one at a time.
On to B2, for which a half-maximal effect (EC50) was put at 7.37 nM.
On to B3, for which the EC50 worked out at 3.81 nM.
Regarding B4, the EC50 turned out to be 5.87 nM.
Turning to B5, the EC50 was 8.5 nM.
On the same count and under the same terms, in the case of B6 it was 6.64 nM; in that of B7, 2.98 nM.
The molecule B8 displayed an EC50 of 4.89 nM.

A further assay deals with T4, cynomolgus 4-1BB on CHO cells (cynomolgus, UniProt A9YYE7 24-254).
T4 construct: also called Flp-In-CHO::cyno4-1BB; cynomolgus 4-1BB-expressing CHO cells
T4 sequence (A9YYE7 entry or part of it limits assumed): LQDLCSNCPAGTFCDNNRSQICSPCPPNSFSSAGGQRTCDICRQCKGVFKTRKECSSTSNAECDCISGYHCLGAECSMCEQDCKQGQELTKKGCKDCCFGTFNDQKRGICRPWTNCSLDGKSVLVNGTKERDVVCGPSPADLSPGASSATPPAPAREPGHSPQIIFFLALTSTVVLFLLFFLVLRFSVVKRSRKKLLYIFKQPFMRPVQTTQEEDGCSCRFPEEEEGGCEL
Briefly: flow cytometry, Flp-In-CHO::cyno4-1BB cells. On the procedure: as §1, §2
B2 returned an EC50 of 5.63 nM.
Same read-out and setting: in the case of B3 it was 3.81 nM.
As for B4, the midpoint of the response, the EC50, lay at 3.68 nM.
B5: the EC50 was found to be 6.59 nM.
On the same count and under the same terms, in the case of B6 it was 5.03 nM.
As to B7, the EC50 was 2.83 nM.
On the same count and under the same terms, in the case of B8 it was 5.92 nM.

Values taken from patent US20230227568A1 (Pieris, published 2023).
